# In patent US20150259666A1:
# What was measured:
# [1] = biological target: fibrin (clot prepared from fibrinogen with bovine thrombin); assay: fibrin clot binding assay; ratio of CT-b to full-length t-PA
# [2] = biological target: fibrin (clot prepared from fibrinogen with bovine thrombin); assay: fibrin clot binding assay, 0.1 mg/ml fibrinogen; bound enzyme = total minus free in supernatant by ELISA
# [3] = biological target: fibrin (clot prepared from fibrinogen with bovine thrombin); assay: fibrin clot binding assay, 0.3 mg/ml fibrinogen; bound enzyme = total minus free in supernatant by ELISA
fold fibrin binding against full-length t-PA [1] [fold],percent fibrin binding [2] [%],percent fibrin binding [3] [%],Substance
1.2,28,60,chimeric truncated tissue plasminogen activator (CT t-PA) or CT-b (from UniProt P98119 37-82; P00750 82-214; P00750 297-562) (enzyme)
,24,51,full length t-PA (native human tissue plasminogen activator) (from UniProt P00750 36-562) (enzyme)
